β-galactosidase activity, yeast two-hybrid (Y190) data for 5 substances are collected here from patent publication US6528283.

Common to all, as to test: cell-based or functional assay
Common to all, as to settings: scale: β-galactosidase activity units

The target in assay [1] is hD52 bait (GAL4 DNA-binding domain fused to full-length hD52, pAS2-1hD52) (human).
For assay [2], the target named is mD52 bait (GAL4 DNA-binding domain fused to full-length mD52, pAS2-1mD52) (mouse).
For assay [3], the target named is hD54+ins2 bait (GAL4 DNA-binding domain fused to hD54+ins2, pAS2-1hD54+ins2) (human).
Assay [4] addresses hD53 bait (GAL4 DNA-binding domain fused to full-length hD53, pAS2-1hD53) (human).
The target of assay [5] is GAL4 DNA-binding domain alone (empty pAS2-1 vector, negative control bait) (UniProt P04386).
Assay [6] has as its target hD54-ins2 bait (GAL4 DNA-binding domain fused to hD54-ins2, pAS2-1hD54-ins2) (human).
For assay [7], the target named is mD52(1-95) bait (GAL4 DNA-binding domain fused to the N-terminal half of mD52, pAS2-1mD52(1-95)) (mouse).
Assay [8] deals with mD52 bait (GAL4 DNA-binding domain fused to full-length mD52, pAS2-1mD52) (mouse). This is another data set of the same source.
The target of assay [9] is mD52(95-185) bait (GAL4 DNA-binding domain fused to the C-terminal half of mD52, pAS2-1mD52(95-185)) (mouse).

Take “GAL4 activation domain alone (empty pACT2 vector, negative control interactor) (from UniProt P04386 768-881)”: the β-galactosidase activity, yeast two-hybrid (Y190) amounted to 0 in assay [1]; 0 in assay [2]; 0 in [3]; 0.14 in assay [4]; 0 in [5]; 0 in [6]. Besides, the β-galactosidase activity, yeast two-hybrid (Y190) in assay [7] was 0.36; in assay [8], 0.34; in assay [9], 0.23.
With “hD52 interactor (GAL4 activation domain fused to hD52, pAD-GAL4hD52, library clone starting at nt 46) (from UniProt P04386 761-881)”, the β-galactosidase activity, yeast two-hybrid (Y190) in [1] turned out to be 0.87; in assay [2], 0.16; in [3], 0.85; in assay [4], 3; in assay [5] it was 0.17; in [6], 1.74.
Turning to “hD54+ins2 interactor (GAL4 activation domain fused to hD54+ins2, pACT2hD54+ins2) (from UniProt P04386 768-881)”, the β-galactosidase activity, yeast two-hybrid (Y190) in assay [1] was 2.03; in [2] it was 0.48; in [3], 5.98; in assay [4], 6.01; in assay [5], 0; in assay [6], 3.51.
In the case of “hD54-ins2 interactor (GAL4 activation domain fused to hD54-ins2, pACT2hD54-ins2) (from UniProt P04386 768-881)”, the β-galactosidase activity, yeast two-hybrid (Y190) worked out at 1.15 in assay [1]; 0.44 in assay [2]; 2.03 in assay [3]; 2.26 in assay [4]; 0.45 in assay [5]; 1.07 in assay [6].
Turning to “mD52(1-163) interactor (GAL4 activation domain fused to mD52 amino acids 1-163, pACT2mD52(1-163)) (from UniProt P04386 768-881)”, the β-galactosidase activity, yeast two-hybrid (Y190) in assay [1] amounted to 1.3; in assay [2], 0.42; in assay [3], 4.25; in [4] it was 5.71; in [5] it was 0; in assay [6], 2.37.
